± gives the uncertainty stated by the source.
B1: Zinc finger homeobox protein 3, residues 2147 to 2202; numbered along this chain, Q15911 (parent)
chain: RPRTRITDDQLRVLRQYFDINNSPSEEQIKEMADKSGLPQKVIKHWFRNTLFKERQ

Variants of: B1
Test: abundance fitness (aPCA) (normalised: wild type 0, dead -1); higher = more abundant; growth selection in yeast, the domain comes from the species named
Settings: Homo sapiens

| Variant | abundance fitness |
| --- | --- |
| RPRTRITDDQLRVLRQYFDINNSPSEEQIKEMADKSGLPQYVIKHWFRNTLFKERQ [K41Y] | -0.389 ± 0.21 |
| RPRTRITDDQLRVLRQYFDINNSPSEEQIKEMADKSGLPQSVIKHWFRNTLFKERQ [K41S] | -0.02 ± 0.11 |
| RPRTRITDDQLRVLRQYFDINNSPSEEQIKEMADKSGLPQWVIKHWFRNTLFKERQ [K41W] | -0.361 ± 0.12 |
| RPRTRITDDQLRVLRQYFDINNSPSEEQIKEMADKSGLPQVVIKHWFRNTLFKERQ [K41V] | -0.108 ± 0.091 |
| RPRTRITDDQLRVLRQYFDINNSPSEEQIKEMADKSGLPQKVIKHWLRNTLFKERQ [F47L] | -0.211 ± 0.09 |
| RPRTRITDDQLRVLRQYFDINNSPSEEQIKEMADKSGLPQKVIKHWARNTLFKERQ [F47A] | -0.482 ± 0.094 |
| RPRTRITDDQLRVLRQYFDINNSPSEEQIKEMADKSGLPQKVIKHWHRNTLFKERQ [F47H] | -0.699 ± 0.16 |
| RPRTRITDDQLRVLRQYFDINNSPSEEQIKEMADKSGLPQKVIKHWDRNTLFKERQ [F47D] | -0.819 ± 0.19 |
| RPRTRITDDQLRVLRQYFDINNSPSEEQIKEMADKSGLPQKVIKHWCRNTLFKERQ [F47C] | -0.169 ± 0.11 |
| RPRTRITDDQLRVLRQYFDINNSPSEEQIKEMADKSGLPQKVIKHWKRNTLFKERQ [F47K] | -0.774 ± 0.17 |
| RPRTRITDDQLRVLRQYFDINNSPSEEQIKEMADKSGLPQKVIKHWMRNTLFKERQ [F47M] | -0.242 ± 0.17 |
| RPRTRITDDQLRVLRQYFDINNSPSEEQIKEMADKSGLPQKVIKHWIRNTLFKERQ [F47I] | -0.265 ± 0.18 |
| RPRTRITDDQLRVLRQYFDINNSPSEEQIKEMADKSGLPQKVIKHQFRNTLFKERQ [W46Q] | -0.576 ± 0.14 |
| RPRTRITDDQLRVLRQYFDINNSPSEEQIKEMADKSGLPQKVIKHAFRNTLFKERQ [W46A] | -0.63 ± 0.13 |
| RPRTRITDDQLRVLRQYFDINNSPSEEQIKEMADKSGLPQKVIKHPFRNTLFKERQ [W46P] | -0.812 ± 0.2 |
| RPRTRITDDQLRVLRQYFDINNSPSEEQIKEMADKSGLPQKVIKHMFRNTLFKERQ [W46M] | -0.429 ± 0.15 |
| RPRTRITDDQLRVLRQYFDINNSPSEEQIKEMADKSGLPQKVIKHNFRNTLFKERQ [W46N] | -0.561 ± 0.19 |
| RPRTRITDDQLRVLRQYFDINNSPSEEQIKEMADKSGLPQKVIKHRFRNTLFKERQ [W46R] | -0.812 ± 0.093 |
| RPRTRITDDQLRVLRQYFDINNSPSEEQIKEMADKSGLPQKVIKHVFRNTLFKERQ [W46V] | -0.177 ± 0.11 |
| RPRTRITDDQLRVLRQYFDINNSPSEEQIKEMADKSGLPQKVIKHYFRNTLFKERQ [W46Y] | -0.439 ± 0.21 |
| RPRTRITDDQLRVLRQYFDINNSPSEEQIKEMADKSGLPQKVIKHEFRNTLFKERQ [W46E] | -0.348 ± 0.17 |
| RPRTRITDDQLRVLRQYFDINNSPSEEQIKEMADKSGLPQKVIKHDFRNTLFKERQ [W46D] | -0.361 ± 0.41 |
| RPRTRITDDQLRVLRQYFDINNSPSEEQIKEMADKSGLPQKVIKHCFRNTLFKERQ [W46C] | -0.524 ± 0.14 |
| RPRTRITDDQLRVLRQYFDINNSPSEEQIKEMADKSGLPQKVIKHIFRNTLFKERQ [W46I] | -0.118 ± 0.2 |

| Variant | abundance fitness |
| --- | --- |
| RPRTRITDDQLRVLRQYFDINNSPSEEQIKEMADKSGLPQKVIKHTFRNTLFKERQ [W46T] | -0.555 ± 0.16 |
| RPRTRITDDQLRVLRQYFDINNSPSEEQIKEMADKSGLPQKVIKHSFRNTLFKERQ [W46S] | -0.83 ± 0.13 |
| RPRTRITDDQLRVLRQYFDINNSPSEEQIKEMADKSGLPQKVIKHKFRNTLFKERQ [W46K] | -0.738 ± 0.14 |
| RPRTRITDDQLRVLRQYFDINNSPSEEQIKEMADKSGLPQKVIKHFFRNTLFKERQ [W46F] | -0.163 ± 0.18 |
| RPRTRITDDQLRVLRQYFDINNSPSEEQIKEMADKSGLPQKIIKHWFRNTLFKERQ [V42I] | -0.074 ± 0.12 |
| RPRTRITDDQLRVLRQYFDINNSPSEEQIKEMADKSGLPQKPIKHWFRNTLFKERQ [V42P] | -0.618 ± 0.18 |
| RPRTRITDDQLRVLRQYFDINNSPSEEQIKEMADKSGLPQKTIKHWFRNTLFKERQ [V42T] | -0.027 ± 0.13 |
| RPRTRITDDQLRVLRQYFDINNSPSEEQIKEMADKSGLPQKMIKHWFRNTLFKERQ [V42M] | -0.218 ± 0.15 |
| RPRTRITDDQLRVLRQYFDINNSPSEEQIKEMADKSGLPQKCIKHWFRNTLFKERQ [V42C] | 0.058 ± 0.1 |
| RPRTRITDDQLRVLRQYFDINNSPSEEQIKEMADKSGLPQKAIKHWFRNTLFKERQ [V42A] | -0.098 ± 0.11 |
| RPRTRITDDQLRVLRQYFDINNSPSEEQIKEMADKSGLPQKFIKHWFRNTLFKERQ [V42F] | -0.293 ± 0.18 |
| RPRTRITDDQLRVLRQYFDINNSPSEEQIKEMADKSGLPQKRIKHWFRNTLFKERQ [V42R] | -0.028 ± 0.09 |
| RPRTRITDDQLRVLRQYFDINNSPSEEQIKEMADKSGLPQKWIKHWFRNTLFKERQ [V42W] | -0.119 ± 0.095 |
| RPRTRITDDQLRVLRQYFDINNSPSEEQIKEMADKSGLPQKHIKHWFRNTLFKERQ [V42H] | -0.374 ± 0.19 |
| RPRTRITDDQLRVLRQYFDINNSPSEEQIKEMADKSGLPQKNIKHWFRNTLFKERQ [V42N] | -0.15 ± 0.17 |
| RPRTRITDDQLRVLRQYFDINNSPSEEQIKEMADKSGLPQKLIKHWFRNTLFKERQ [V42L] | -0.103 ± 0.092 |
| RPRTRITDDQLRVLRQYFDINNSPSEEQIKEMADKSGLPQKSIKHWFRNTLFKERQ [V42S] | -0.139 ± 0.09 |
| RPRTRITDDQLRVLRQYFDINNSPSEEQIKEMADKSGLPQKKIKHWFRNTLFKERQ [V42K] | -0.051 ± 0.15 |
| RPRTRITDDQLRVLRQYFDINNSPSEEQIKEMADKSGLPQKDIKHWFRNTLFKERQ [V42D] | 0.094 ± 0.15 |
| RPRTRITDDQLRVLRQYFDINNSPSEEQIKEMADKSGLPQKYIKHWFRNTLFKERQ [V42Y] | -0.18 ± 0.14 |
| RPRTRITDDQLRVLRQYFDINNSPSEEQIKEMADKSGLPQKVIRHWFRNTLFKERQ [K44R] | -0.069 ± 0.081 |
| RPRTRITDDQLRVLRQYFDINNSPSEEQIKEMADKSGLPQKVINHWFRNTLFKERQ [K44N] | -0.334 ± 0.19 |
| RPRTRITDDQLRVLRQYFDINNSPSEEQIKEMADKSGLPQKVIMHWFRNTLFKERQ [K44M] | -0.2 ± 0.14 |

Source: the Human Domainome abundance scans (Beltran et al. 2025)
